In article PMC9114370, “Heat shock protein Grp78/BiP/HspA5 binds directly to TDP-43 and mitigates toxicity associated with disease pathology” (Scientific Reports, 2022):
“And” between values parts separate entries of the source, which are not always exact repeats. Identical values can stand only once.

Assays:
Settings in all cases: both partners purified
[1] = biological target: T1, HspA5 substrate binding domain (SBD) (human, UniProt P11021 420-654); test: MST; NTA-labelled TDP-43(102-269), HspA5 titrated, in the presence of UG6 RNA (increasing concentrations; concentration not given)
T1 construct: SBD approximately 200 amino acids long; vector pSpeedET; also called HspA5-SBD; Grp78; source: E. coli BL21-Codon plus, purified (cobalt IMAC, TEV cleavage)
T1 sequence (P11021 420-654): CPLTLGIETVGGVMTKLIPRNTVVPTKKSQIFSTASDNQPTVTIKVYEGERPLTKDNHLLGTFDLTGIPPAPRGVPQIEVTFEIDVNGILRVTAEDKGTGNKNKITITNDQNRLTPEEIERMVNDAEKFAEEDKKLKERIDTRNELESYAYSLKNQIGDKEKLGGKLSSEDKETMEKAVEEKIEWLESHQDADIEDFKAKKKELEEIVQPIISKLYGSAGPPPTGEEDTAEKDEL

[2] = biological target: T2, HspA1A substrate binding domain (SBD) (human, UniProt P0DMV8 395-641); test: MST; 50 nM labelled TDP-43 construct (RED-NTA labelling), ranging concentrations of Hsp70 SBD titrated, MST buffer, premium capillaries, 40% LED, medium MST power; no RNA
T2 construct: SBD approximately 200 amino acids long; vector pSpeedET; also called Hsp70 SBD; source: E. coli BL21-Codon plus, purified (cobalt IMAC, TEV cleavage)
T2 sequence (P0DMV8 395-641): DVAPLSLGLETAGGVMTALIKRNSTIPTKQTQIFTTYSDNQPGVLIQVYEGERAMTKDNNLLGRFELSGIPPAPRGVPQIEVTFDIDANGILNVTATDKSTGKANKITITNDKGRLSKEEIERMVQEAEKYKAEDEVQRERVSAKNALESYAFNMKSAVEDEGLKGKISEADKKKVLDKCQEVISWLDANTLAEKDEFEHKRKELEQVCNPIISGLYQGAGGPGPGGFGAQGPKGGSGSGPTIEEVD

[3] = biological target: T1, HspA5 substrate binding domain (SBD); test: as above

B1: TDP43_(102-269)-His (domain or fragment, human, UniProt Q13148 102-269, looked up)
chain: KTSDLIVLGLPWKTTEQDLKEYFSTFGEVLMVQVKKDLKTGHSKGFGFVRFTEYETQVKVMSQRHMIDGRWCDCKLPNSKQSQDEPLRSRKVFVGRCTEDMTEDELREFFSQYGDVMDVFIPKPFRAFAFVTFADDQIAQSLCGEDLIIKGISVHISNAEPKHNSNRQ
modifications: labelled with Monolith Protein Labeling Kit RED-NTA
notes: also called RRM domain; RRM domains of TDP-43; source: recombinantly expressed, purified
Kd [1]: 28.3 µM
Kd [2]: 2350 nM
Kd [3]: 298 nM and 890 nM
